T1: Presegetalin A1[14,32]
T1 chain: GVPVWAFQAKDVENASAPV

T2: Presegetalin A1[14,32] P16p W18a
T2 chain: GVPVAAFQAKDVENASAPV

T3: Presegetalin A1[14,32] P16p W18A
T3 chain: GVPVAAFQAKDVENASAPV

T4: Presegetalin A1[14,32]V17A
T4 chain: GVPAWAFQAKDVENASAPV

T5: Presegetalin A1[14,32]W18A
T5 chain: GVPVAAFQAKDVENASAPV

T6: Presegetalin A1[14,32]G14A
T6 chain: AVPVWAFQAKDVENASAPV

T7: Presegetalin A1[14,32]V15A
T7 chain: GAPVWAFQAKDVENASAPV

T8: Presegetalin A1[14,32]P16A
T8 chain: GVAVWAFQAKDVENASAPV

T9: Presegetalin A1[14,32]A19V
T9 chain: GVPVWVFQAKDVENASAPV

B1: Silene vulgaris PCY1-c150 (recombinant) (protein)
chain: MASSAFSKPLNYPPVRRDETVVNDYFGVKVADPYRWLEDQEGEETIEFVDNQVKLADSVLEECELRDKIKQKITDLVNFPRCGVPFKRADKYFHFYNSGLQAQNVLHMQDDLDGKPEVLYDPNLREGGRSGLHQYAVSEDAKYLAFGINSGFSEWLTIKVMRIEDRSVLPDSLSWVKFSGIHWTHDSKGFFFSPYPPATEGLEVGMKTNSSFNQELRYHFLGTDESEDVLCWRDPENPTHHLKSDLTADGKYLLLYISAGCDATNKVYYMDLTTLPNGLEGLRGGKDLLPFKRLIDEFDATYTAIANDGSVFTFLTNKDAPRNKIVRVDLNNPDIWTEVIPESKKDVLESAHAVNGNQLLVRYLSDVKHILEVRDLESGSLLHRLPVDLGVIDGITARPQDSVVFFKFTSFLTPTIIYQCDLKEDSPQLKIFRESVVPEFDRSEFEVKQVFVSAKDGTKIPMFIVARKGISLDGSHPCELHGYGGFSISIKPFFSASRIVILKHLDAVFCVANIRGGGEYGEEWHQAGWREKKQIVFDDFISSAEYLVSSGYTQPQKLSIEGGSNGGLLVAACINQRPDLFGCAQANCGVMDMLRFHKFTLGYLWTSDYGCSEKEEDFNWLIKYSPIHNVRRPWEHSKNPQLQYPAVMILTADHDDRVVPLHSFKLLATLQHVLCTSLEDSPQKNPIIARIERKASHCGRATMKQIDEAADRYAFMAKALRATWTD
B2: Dianthus superbus PCY1-c1141 (recombinant) (protein)
chain: MAVSCGFTKTLHYPPVRRDETVVDDYFGLKIADPYRWLEDLNSEETKKFVDDQVKFTESVLEECELIGKVKQKIIDYVSFPRWSVPLRRANKYFHFYNSGLQSQNVYRMQDGLDGKPEVVYDPNLREGGRTGLTLYSVSEDANYFAFGIAEGFTEWLTIRVMRIEDRSMLPDCITGVKHSGIHWTHDNKGFFYCPYPPLEEGQDLMIHPSMSQEVRYHFIGTDQSEDILCWKDTVNPTHHLKSYFTDDGKYFVLYILEGCNNMNKVYCLDLTELPNGPESLRGREGSAPFIKLVDSFDALYTAIANDGSVFTFLTDKDATRRKLVRVDLNNPSVWTDVLPESKDLLESAHAVNGNQLLIRYLSDVKHILELRDLESGSLLHRIPIDIGAVDGTINARRGDSVVFFKFTSILTPSIIYQCDLKNDPPQLKIFRESVVPGFDRSEFEVKQLFAPSKDGTMIPTFVAARKGISLDGSHPCEMHGYGAYGQCMMPTFSASRLVFLKHLGGVFCLANIRGGGEYGVEWHKAGARENKQNSYDDFIASAEFLVSSGYTAPKKICIEGGSNGGLLIAVCITQRPDLFGCAEPNCGPMDMIRFHHFTQGYVVMSEYGSPDKEEEFNWLIKYSPLHNVRRPWEQPGHEQTQYPATMIITADHDDRVVPFHSYKMIATMQHVLCTSLENSPQKFPIICRIQRNASHYGRATMVQIAEVADRYGFMAKALNATWTD
B3: Dianthus superbus PCY1-c250 (recombinant) (protein)
chain: MASCGFTKPLHYPTARRDETVVDDYFGLKVADPYRWLEDRDSEETKKFVEDQVKFTDSVLEECELIGKVKQKIIDYVSFPRWSVPLRRANKYFHFYNSGLQSQNVYRMQDGLDGKPEVICDPNLREDGRTGLSVYSVSEDAKYFAFGIAEGFTEWLTIRVMRTEDRSMLPDCLTEVKFTTVHWTHDNKGFFYCAYPPLEEGQDHMVHASISQEARYHYLGTDQSEDILCWKDPENPTHHFRSYFTDDGKYFVLYILEGCDKKNKVYCLDLTKLPNGPESLRGREGSAPFIKLVDSFDASYTVIANDDSVFTLLTDKDAKRCKLVRVDLNNPSVWTDVIPESKDLLESAHAVNGNQLLLRYLRDVKHVLELRDLESGSLLHSIPIDIGAVDGINARRGDSIVFFRFTSILTPGIIYQCDLKNDPTQLNIFRESLVPGFDRSEFEVKQVFVPGKDGTKIPAFIAARKGISLDGSHPCEMHGYGGYGHNMMPTFSASRLVFLKHLGGVFCLANIRGGGEYGVDWHKAGARENKQTSFDDFISSAEFLVSSGYSAPKKICIEGGSNGGLLIAVCITQRPDLFGCAEPNCGPMDMLRFHKFTLGYLWTDEYGNPDNEEEFNWLIKYSPLHNVRRPWEQPGHEQTQYPATMIITADHDDRVVPMHSYKMIATMQHVLCTSLENSPQKYPIICRIQRKASHYGRSTMVQIAEVADRYGFMAKALNATWTD

What was measured:
Presegetalin A1[14,32] = target: T1, Presegetalin A1[14,32]
[1] = target: T2, Presegetalin A1[14,32] P16p W18a
[2] = target: T3, Presegetalin A1[14,32] P16p W18A
[3] = target: T4, Presegetalin A1[14,32]V17A
[4] = target: T5, Presegetalin A1[14,32]W18A
[5] = target: T6, Presegetalin A1[14,32]G14A
[6] = target: T7, Presegetalin A1[14,32]V15A
[7] = target: T8, Presegetalin A1[14,32]P16A
[8] = target: T9, Presegetalin A1[14,32]A19V

| Protein | production of segetalin A (LC/MS) (Presegetalin A1[14,32]) | cyclic peptide product (LC/MS, MS/MS) [1] | cyclization (LC/MS) [1] | relative activity (LC/MS) [1] | cyclic peptide product (LC/MS, MS/MS) [2] | activity on alanine scan mutant (LC/MS) [3] | cyclic peptide product (LC/MS) [4] | cyclic peptide product (LC/MS) [5] | activity on alanine scan mutant (LC/MS) [6] | activity on alanine scan mutant (LC/MS) [7] | activity on alanine scan mutant (LC/MS) [8] |
| --- | --- | --- | --- | --- | --- | --- | --- | --- | --- | --- | --- |
| B1 | has the same enzymatic activity as that of S. vaccaria PCY1, (FIG. 7d) albeit weaker than that of S. vaccaria PCY1 for production of segetalin A | – | – | – | – | – | – | – | – | – | – |
| B2 | show strong enzymatic activity ... similar to that of S. vaccaria PCY1 | S. vaccaria PCY1 and D. superbus PCY1-c1141 made cyclic peptides from both No. 31 and No. 32 | also demonstrated the ability to cyclize alternating D- and L-amino acid polypeptide substrates (FIG. 12a) in a similar manner to S. vaccaria PCY1 | D. superbus PCY1-c1141 was relatively more active on No. 32 than was S. vaccaria PCY1 | S. vaccaria PCY1 and D. superbus PCY1-c1141 made cyclic peptides from both No. 31 and No. 32 | – | – | – | – | – | – |
| B3 | show strong enzymatic activity ... similar to that of S. vaccaria PCY1 | – | – | – | – | D. superbus PCY1-c250 activity was comparable to that of S. vaccaria PCY1 | D. superbus PCY1-c250 appeared to produce relatively more cyclic peptide than did S. vaccaria PCY1 from No. 11 | there was no detectable cyclic peptide made from No. 7 by D. superbus PCY1-c250 | D. superbus PCY1-c250 activity was comparable to that of S. vaccaria PCY1 | D. superbus PCY1-c250 activity was comparable to that of S. vaccaria PCY1 | D. superbus PCY1-c250 activity was comparable to that of S. vaccaria PCY1 |

— patent US20140363844
